Source: patent US20240279622A1, “COELENTERAZINE-UTILIZING LUCIFERASES WITH STABLE GLOW-TYPE LIGHT EMISSION AND METHODS OF PRODUCING AND USING THEREOF” (MASARYKOVA UNIVERZITA, priority 2021, published 2024)
Numbering of substitutions follows the chain as printed. Names and notes keep the numbering of the source. Where two headings read alike, the source gives them in different places. Each block holds one molecule with its values, some of them ahead of it.

Legend:
[1] = Steady-state kinetic analysis of full-conversion cumulative luminescence curves; format: biochemical
Method: Each luminescence trace was measured in 3 repetitions. The concentration of coelenterazine in the final reaction mixture ranged from 0.2 to 7.9 μM while the concentration of luciferase enzymes ranged from 17 to 640 nM.
An updated protocol applying new standards for collecting and fitting steady-state kinetic data was used. Unlike the classical initial velocity analysis, which requires a sophisticated luminometer calibration and quantum yield evaluation, luminescence data were recorded when letting the reaction proceed to completion beyond the initial linear phase. The recorded luminescence traces (rate vs. time) were transformed to reaction progress curves corresponding to cumulative luminescence in time. The transformed kinetic data (product vs. time) were fitted globally with the KinTek Explorer (KinTek Corporation, USA). The software allows for the input of a given kinetic model via a simple text description, and the program then derives the differential equations needed for numerical integration automatically.
Numerical integration of rate equations searching a set of kinetic parameters that produce a minimum χ^2 value was performed using the Bulirsch-Stoer algorithm with adaptive step size, and nonlinear regression to fit data was based on the Levenberg-Marquardt method. To account for fluctuations in experimental data, enzyme or substrate concentrations were slightly adjusted (5%) to derive best fits. Residuals were normalized by sigma values for each data point. The standard error was calculated from the covariance matrix during nonlinear regression. In addition to standard error values, more rigorous analysis of the variation of the kinetic parameters was accomplished by confidence contour analysis by using FitSpace Explorer (KinTek Corporation, USA). In these analyses, the lower and upper limits for each parameter were derived from the confidence contour obtained from setting χ^2 threshold at 0.9. The scaling factor, relating luminescence signal to product concentration, was applied as one of the fitted parameters, well constrained by end-point levels of kinetic traces recorded at particular substrate concentrations. Depletion of the available substrate after the reaction was ensured by repeated injection of the fresh enzyme.
The steady-state model, described by Equation (4), was used to obtain the values of turnover number kcat, Michaelis constant Km, and equilibrium dissociation constant for enzyme-product complex Kp. A conservative estimate for diffusion-limited substrate and product binding k1 and k3 (100 μM^−1·s^−1) was used as a fixed value to mimic the rapid equilibrium assumption. An alternative form of the model, described by Equation (5), was used to obtain estimates of kcat/Km directly by setting k−1=0.

[2] = Thermal unfolding by NanoDSF (tryptophan fluorescence); format: physicochemical; settings: for Tm / Tonset: 100 mM potassium phosphate buffer pH 7.5, 1° C./min
Method: Thermal unfolding was studied using NanoDSF Prometheus (NanoTemper, Germany) by monitoring tryptophan fluorescence over the temperature range of 20 to 90° C., at a heating rate of 1° C./min. The melting temperatures (Tonset and Tm) were evaluated directly by ThermControl v2.0.2.

[3] = Stopped-flow pre-steady-state kinetics of substrate binding (tryptophan fluorescence quenching); settings: 15° C.; for k+1: pH 7.5, induced-fit binding mechanism
Method: The measurement was performed at 15° C. in 100 mM potassium phosphate buffer pH 7.5. Rapid mixing of the components was achieved using the Stopped-Flow SFM 3000 combined with the MOS-500 spectrometer (BioLogic, France). The reaction was initiated by mixing 75 μL of an enzyme with 75 μL of coelenterazine and then monitored by the change of native tryptophan fluorescence (295 nm excitation, 340±13 nm emission). The fluorescence changes were caused by the quenching effect of the coelenterazine substrate upon its binding by an enzyme. The experiment was designed in two different modes, varying either the concentration of the coelenterazine substrate or the concentration of an enzyme. Each kinetic trace was measured in seven consecutive replicates and averaged. The concentration of coelenterazine in the final reaction mixture ranged from 0.9 to 90 μM while the concentration of luciferase enzymes ranged from 0.4 to 94 μM.
The collected double-exponential kinetic traces were fitted globally with the KinTek Explorer (KinTek Corporation, USA). The software allows for the input of a given kinetic model via a simple text description, and the program then derives the differential equations needed for numerical integration automatically. Numerical integration of rate equations searching a set of kinetic parameters that produce a minimum χ^2 value was performed using the Bulirsch-Stoer algorithm with adaptive step size, and nonlinear regression to fit data was based on the Levenberg-Marquardt method. Residuals were normalized by sigma values for each data point. The standard error was calculated from the covariance matrix during nonlinear regression. In addition to standard error values, more rigorous analysis of the variation of the kinetic parameters was accomplished by confidence contour analysis by using FitSpace Explorer (KinTek Corporation, USA). In these analyses, the lower and upper limits for each parameter were derived from the confidence contour obtained from setting the χ^2 threshold at 0.95.
The time-course of the fluorescence quenching upon substrate binding was described with Equation (7) according to the induced-fit binding mechanism and the mechanism was fit directly to the collected kinetic data to obtain the values of elementary rate constants describing the substrate binding process. The quality of the best fits was compared in terms of χ^2 values, “chi-by-eye” assessment, and confidence contour analysis assessing constraint and independency of the determined parameters which confirmed that the obtained values are well-defined by the collected kinetic data.

[4] = Anaerobic equilibrium binding of coelenterazine substrate (fluorescence)
Method: The experiments were performed under strictly anaerobic conditions to prevent enzymatic oxidation of interacting ligands. To do so, all the equipment and material, including water, buffer, pipettes, tips, syringes, microplates, and sealing, were made anaerobic by incubating them overnight in the anaerobic glovebox Belle MR2 (Belle Technology, UK). The box was filled with ultra-high purity (UHP) nitrogen atmosphere containing the residual oxygen concentration of 2.3 ppm, as determined by the oxygen meter O2M-3 (Belle Technology, UK). Liquids were aliquoted to the volume of maximally 50 mL and were stirred overnight in the box to release any dissolved oxygen. Two hours prior to the experiment, a closed bottle with an evacuated lyophilized enzyme (oxygen depleted) was put into the glovebox, dissolved with anaerobic water, and incubated to remove any remaining oxygen possibly dissolved in the solution. Similarly, the stock solution of coelenterazine or coelenteramide in ethanol, which was long-term stored in a freezer under the nitrogen atmosphere without oxygen, was put into the glovebox in a closed bottle. A small aliquot of coelenterazine/coelenteramide was transferred into a new empty bottle and kept open for about 20 minutes to remove the remaining dissolved oxygen. After the incubation, a few microliters of an enzyme were mixed with the same amount of coelenterazine, and the mixture was visually inspected for any possible bioluminescence. If no light was observed and the mixture remained yellow even after a minute, all the reagents were ready for anaerobic measurements.
(§1) In the anaerobic glovebox, 200 μL of a differently concentrated enzyme was put into a separate well in a microplate and into each of these wells, 5 μL of coelenterazine or coelenteramide stock solution was added. As a blank, 200 μL of the enzyme was mixed with 5 μL of ethanol for each enzyme concentration. […] The extent of coelenterazine binding at each concentration was determined by measuring fluorescence spectra ranging from 480 to 580 nm upon excitation at 420 nm using the microplate spectrophotometer Varioskan LUX (Thermo Scientific, USA). Binding of coelenteramide was monitored by measuring fluorescence spectra ranging from 350 to 700 nm upon excitation at 330 nm. […]
The obtained fluorescence spectra were visually inspected for characteristic peaks, and the value of the maximal fluorescence intensity Fluomax at these peaks was plotted against the enzyme concentration. The final value of the dissociation constant Kd was determined by fitting the dependence with the hyperbolic Equation (8) using the software Origin 6.1 (OriginLab, USA).

[5] = Anaerobic equilibrium binding of coelenteramide product (fluorescence); settings: pH 7.5, 30° C., read-out: Dissociation constant Kd, Coelenteramide product
Method: The experiments were performed under strictly anaerobic conditions to prevent enzymatic oxidation of interacting ligands. To do so, all the equipment and material, including water, buffer, pipettes, tips, syringes, microplates, and sealing, were made anaerobic by incubating them overnight in the anaerobic glovebox Belle MR2 (Belle Technology, UK). The box was filled with ultra-high purity (UHP) nitrogen atmosphere containing the residual oxygen concentration of 2.3 ppm, as determined by the oxygen meter O2M-3 (Belle Technology, UK). Liquids were aliquoted to the volume of maximally 50 mL and were stirred overnight in the box to release any dissolved oxygen. […] If no light was observed and the mixture remained yellow even after a minute, all the reagents were ready for anaerobic measurements.
as §1, with “added.” for “added. As a blank, 200 μL of the enzyme was mixed with 5 μL of ethanol for each enzyme concentration.”

[6] = pH 7.5
Method: Solid coelenterazine was dissolved in ice-cold ethanol and stored under a nitrogen atmosphere in dark glass vials at −20° C. Before each measurement, the concentration and maintained quality of the ethanol stock solutions were verified spectrophotometrically. A buffer solution of coelenterazine was prepared by mixing an appropriate volume of the ethanol stock solution with 100 mM phosphate buffer pH 7.5 immediately before the measurement. Tested luciferase enzyme samples were dissolved in the same 100 mM phosphate buffer pH 7.5. The enzymatic reaction was initiated inside the microplate reader FLUOstar OPTIMA (BMG Labtech, Germany) by the automatic addition of 225 μL buffer solution of coelenterazine into a microplate well containing 25 μL of enzyme solution. The resulting bioluminescence activity traces were collected at 37° C. until the luminescence intensity decreased to less than 0.5% of its maximal measured value. Each luminescence trace was measured in 3 repetitions. The concentration of coelenterazine in the final reaction mixture was 2.2 μM while the concentration of luciferase enzymes was 50 nM. The obtained luminescence kinetic data were fitted to an exponential decay or a logistic model using Origin 6.1 (OriginLab, USA) and the value of half-life t1/2, defined as the time when the initial luminescence signal decreased to 50%, was calculated.

[7] = compared to RLuc; cited from earlier work
[8] = from Loening et al. (2006); cited from earlier work
[9] = Luminescence specific activity of the ancestral protein; format: biochemical; settings: 7.9 μM coelenterazine, 37° C., compared to RLuc
Method: Both the coelenterazine substrate and the AncHLD-RLuc enzyme were dissolved in 100 mM potassium phosphate buffer pH 7.5 and their resulting concentrations in the reaction mixture were 7.9 μM coelenterazine, 1.5 nM RLuc, and 2.8 μM AncHLD-RLuc. Bioluminescence activity traces were collected at 37° C. over the first 72.5 seconds immediately after injection of the substrate into the enzyme solution. The activity of each enzyme sample was measured in at least three independent experiments. The collected luminescence curves were integrated to obtain a linear increase of cumulative luminescence over time, while the slope gave the final value of activity, represented in RLU·s^−1. For each enzyme, the calculated activity was related to one milligram of the enzyme to get the final value of specific activity in RLU·s^−1·mg^−1.

Kd ([1]; 100 mM phosphate buffer pH 7.5, 37° C., read-out: Kp (equilibrium dissociation constant for enzyme-product complex)): 1.18 ± 0.05 µM
k+2 ([3]; pH 7.5): 26.6 ± 1.1 s⁻¹
k−1 ([3]; pH 7.5): 305 ± 5 s⁻¹
k−2 ([3]; pH 7.5): 23.4 ± 0.2 s⁻¹
k+1 [3]: 2.35e+06 ± 40000 M⁻¹ s⁻¹
Kd ([4]; anaerobic, pH 7.5, 30° C., read-out: Dissociation constant Kd, Coelenterazine substrate): 37 ± 15 µM
Kd ratio substrate/product ([4]; ratio): 1.7 ± 0.7
Kd [5]: 22 ± 2 µM
B1: RLuc8: Eight-point mutant of RLuc (A55T, C124A, S130A, K136R, A143M, M185V, M253L, and S287L) (protein)
chain: MTSKVYDPEQRKRMITGPQWWARCKQMNVLDSFINYYDSEKHAENAVIFLHGNATSSYLWRHVVPHIEPVARCIIPDLIGMGKSGKSGNGSYRLLDHYKYLTAWFELLNLPKKIIFVGHDWGAALAFHYAYEHQDRIKAIVHMESVVDVIESWDEWPDIEEDIALIKSEEGEKMVLENNFFVETVLPSKIMRKLEPEEFAAYLEPFKEKGEVRRPTLSWPREIPLVKGGKPDVVQIVRNYNAYLRASDDLPKLFIESDPGFFSNAIVEGAKKFPNTEFVKVKGLHFLQEDAPDEMGKYIKSFVERVLKNEQ
modifications: RLuc8
kcat ([1]; 100 mM phosphate buffer pH 7.5, 37° C.): 4.7 ± 0.1 s⁻¹
Glow-type effectivity ([1]; kcat/Km divided by Km/Kp): 2.3 ± 0.2
Tm [2]: 45.0 ± 0.1 °C
Tonset [2]: 35.2 ± 0.1 °C
Half-life (t1/2) [6]: 6.36 ± 0.06 s
Bioluminescence activity improvement [7]: 4.3 fold

B2: RLuc: Luciferase isolated from the sea pansy Renilla reniformis (protein)
chain: B1 chain with T55A, A124C, A130S, R136K, M143A, V185M, L253M, L287S
modifications: RLuc
Tm [2]: 43.7 ± 0.1 °C
Tonset [2]: 36.3 ± 0.2 °C
Half-life (t1/2) [6]: 16.4 ± 0.06 s
kcat [8]: 3.9 ± 0.4 s⁻¹

k−1 ([3]; pH 7.5): 0.118 ± 0.071 s⁻¹
k+1 [3]: 3000 ± 3000 M⁻¹ s⁻¹
Bioluminescence activity lower than the modern luciferase enzyme [9]: > 100,000 fold
B3: AncHLD-RLuc: Reconstructed most-likelihood ancestral protein of Renilla reniformis luciferase and haloalkane dehalogenases (protein)
chain: MVSASQRTTSTATGDEWWAKCKQVDVLDSEMSYYDSDPGKHKNTVIFLHGNPTSSYLWRNVIPHVEPLARCLAPDLIGMGKSGKLPNHSYRFVDHYRYLSAWFDSVNLPEKVTIVCHDWGSGLGFHWCNEHRDRVKGIVHMESVVSPLKGWESFPETARDIFQALRSEAGEEMVLKKNFFIERLLPSSIMRKLSEEEMDAYREPFVEPGESRRPTLTWPREIPIKGDGPEDVIEIVKSYNKWLSTSKDIPKLFINADPGFFSNAIKKVTKNWPNQKTVTVKGLHFLQEDSPEEIGEAIADFLNELTK
modifications: Ancestral protein of Renilla reniformis luciferase
Tm [2]: 64.9 ± 0.1 °C
Tonset [2]: 57.4 ± 0.1 °C
Apparent melting temperature higher than RLuc ([2]; difference to RLuc): 21.2 °C
